Data reported in patent US20140031294A1.

Biological target: Concanavalin A (UniProt P02866)
Assay: ConA sepharose affinity chromatography, load and eluate by RP-HPLC

Row | Analysis 1 Eluate Recovery % (w/w) (ConA binding material) | Analysis 2 Eluate Recovery % (w/w) (ConA binding material) | Substance
1 | 0.15 % (w/w) | – | recombinant transferrin (S32A, S415A, T613A) (from UniProt P02787 20-698) (ligand)
2 | 0.25 % (w/w) | 0.26 % (w/w) | recombinant transferrin (S32C, S415A, T613A) (from UniProt P02787 20-698) (ligand)
